Measurements taken from paper PMC5700813, “A recombinant BBSome core complex and how it interacts with ciliary cargo” (eLife, 2017).
Where two headings read alike, the source gives them in different places. Ends that are not written are not given here. fluorescein = fluorescein, N-terminal fluorescent label

T1: SSTR3 CT2 (human (from the printed UniProt …, fluorescein on the N-terminus))
T1 construct: SSTR3, three residues of the 7th transmembrane region and 21 of the C-terminus; limits worked out from the printed RRVR 333-336; source: synthetic peptide, bought: Proteogenix
T1 peptide: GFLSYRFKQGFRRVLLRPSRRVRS

B1: BBS9 C-terminal part (residues 363–887) (domain or fragment, human, UniProt Q3SYG4-1 363-887, looked up)
chain: PSLFQAPNVQSRELNYDELDVEMKELQKIIKDVNKSQGVWPMTEREDDLNVSVVVSPNFDSVSQATDVEVGTDLVPSVTVKVTLQNRVILQKAKLSVYVQPPLELTCDQFTFEFMTPDLTRTVSFSVYLKRSYTPSELEGNAVVSYSRPTDRNPDGIPRVIQCKFRLPLKLICLPGQPSKTASHKITIDTNKSPVSLLSLFPGFASQSDDDQVNVMGFHFLGGARITVLASKTSQRYRIQSEQFEDLWLITNELILRLQEYFEKQGVKDFACSFSGSIPLQEYFELIDHHFELRINGEKLEELLSERAVQFRAIQRRLLARFKDKTPAPLQHLDTLLDGTYKQVIALADAVEENQGNLFQSFTRLKSATHLVILLIALWQKLSADQVAILEAAFLPLQEDTQELGWEETVDAAISHLLKTCLSKSSKEQALNLNSQLNIPKDTSQLKKHITLLCDRLSKGGRLCLSTDAAAPQTMVMPGGCTTIPESDLEERSVEQDSTELFTNHRHLTAETPRPEVSPLQGVSE
notes: BBS9, human, residues 363-887 (GAE, platform and alpha-helical domains); also called C-terminal domain of BBS9; C-terminal appendage part; source: Hi5 insect cells (baculovirus); alone, purified, or co-expressed with BBS1
B2: BBS1 (aa1-430) (domain or fragment, human, UniProt Q8NFJ9-1 1-430, looked up)
chain: MAAASSSDSDACGAESNEANSKWLDAHYDPMANIHTFSACLALADLHGDGEYKLVVGDLGPGGQQPRLKVLKGPLVMTESPLPALPAAAATFLMEQHEPRTPALALASGPCVYVYKNLRPYFKFSLPQLPPNPLEQDLWNQAKEDRIDPLTLKEMLESIRETAEEPLSIQSLRFLQLELSEMEAFVNQHKSNSIKRQTVITTMTTLKKNLADEDAVSCLVLGTENKELLVLDPEAFTILAKMSLPSVPVFLEVSGQFDVEFRLAAACRNGNIYILRRDSKHPKYCIELSAQPVGLIRVHKVLVVGSTQDSLHGFTHKGKKLWTVQMPAAILTMNLLEQHSRGLQAVMAGLANGEVRIYRDKALLNVIHTPDAVTSLCFGRYGREDNTLIMTTRGGGLIIKILKRTAVFVEGGSEVGPPPAQAMKLNVPRK
notes: BBS1, human, residues 1-430; also called BBS1 ß-propeller domain; truncated BBS1 subunit; source: Hi5 insect cells (baculovirus), purified
B3: BBS9 (full length) (natural protein, human, UniProt Q3SYG4-1 1-887, looked up)
chain: MSLFKARDWWSTILGDKEEFDQGCLCLANVDNSGNGQDKIIVGSFMGYLRIFSPHPAKTGDGAQAEDLLLEVDLRDPVLQVEVGKFVSGTEMLHLAVLHSRKLCVYSVSGTLGNVEHGNQCQMKLMYEHNLQRTACNMTYGSFGGVKGRDLICIQSMDGMLMVFEQESYAFGRFLPGFLLPGPLAYSSRTDSFLTVSSCQQVESYKYQVLAFATDADKRQETEQQKLGSGKRLVVDWTLNIGEQALDICIVSFNQSASSVFVLGERNFFCLKDNGQIRFMKKLDWSPSCFLPYCSVSEGTINTLIGNHNNMLHIYQDVTLKWATQLPHIPVAVRVGCLHDLKGVIVTLSDDGHLQCSYLGTDPSLFQAPNVQSRELNYDELDVEMKELQKIIKDVNKSQGVWPMTEREDDLNVSVVVSPNFDSVSQATDVEVGTDLVPSVTVKVTLQNRVILQKAKLSVYVQPPLELTCDQFTFEFMTPDLTRTVSFSVYLKRSYTPSELEGNAVVSYSRPTDRNPDGIPRVIQCKFRLPLKLICLPGQPSKTASHKITIDTNKSPVSLLSLFPGFASQSDDDQVNVMGFHFLGGARITVLASKTSQRYRIQSEQFEDLWLITNELILRLQEYFEKQGVKDFACSFSGSIPLQEYFELIDHHFELRINGEKLEELLSERAVQFRAIQRRLLARFKDKTPAPLQHLDTLLDGTYKQVIALADAVEENQGNLFQSFTRLKSATHLVILLIALWQKLSADQVAILEAAFLPLQEDTQELGWEETVDAAISHLLKTCLSKSSKEQALNLNSQLNIPKDTSQLKKHITLLCDRLSKGGRLCLSTDAAAPQTMVMPGGCTTIPESDLEERSVEQDSTELFTNHRHLTAETPRPEVSPLQGVSE
notes: BBS9, human, as NM_198428.2 (887 residues by the printed range 363-887); source: Hi5 insect cells (baculovirus); alone, purified, or co-expressed with other subunits
B4: SSTR3 3ICL (peptide)
peptide: fluorescein-VKVRSAGRRVWAPSCQRRRRSERRVTRM
notes: SSTR3, third intracellular loop; source: synthetic peptide, bought: Proteogenix

What was measured:
5HT6 CT (human) [1] = target: T2, 5HT6 CT (human (from the printed UniProt accession)); test: fluorescence polarisation; fluorescein-labelled peptide or Smo fragment (0.1–1 µM) titrated with core BBSome or BBS1 (aa1-430); quadratic binding fit
GPR161 3ICL (human) = target: GPR161 3ICL (human (from the printed UniProt accession)); test: as above
GPR161 CT1 (human) = target: GPR161 CT1 (human (from the printed UniProt accession)); test: as above
GPR161 CT2 (human) = target: GPR161 CT2 (human (from the printed UniProt accession)); test: as above
MCH 3ICL (human) = target: MCH 3ICL (human (from the printed UniProt accession)); test: as above
NMU 3ICL1 (human) = target: NMU 3ICL1 (human (from the printed UniProt accession)); test: as above
NMU 3ICL2 (human) = target: NMU 3ICL2 (human (from the printed UniProt accession)); test: as above
SSTR3 3ICL (human) = target: SSTR3 3ICL (human (from the printed UniProt accession)); test: as above
SSTR3 CT1 (human) = target: SSTR3 CT1 (human (from the printed UniProt accession)); test: as above
SSTR3 CT2 (human) = target: SSTR3 CT2 (human (from the printed UniProt accession)); test: as above
SSTR3 CT3 (human) = target: SSTR3 CT3 (human (from the printed UniProt accession)); test: as above
SSTR3 CT4 (human) = target: SSTR3 CT4 (human (from the printed UniProt accession)); test: as above
SSTR3 CT5 (human) = target: SSTR3 CT5 (human (from the printed UniProt accession)); test: as above
SSTR3 CT6 (human) = target: SSTR3 CT6 (human (from the printed UniProt accession)); test: as above
SSTR3 CT7 (human) = target: SSTR3 CT7 (human (from the printed UniProt accession)); test: as above
SSTR3 CT8 (human) = target: SSTR3 CT8 (human (from the printed UniProt accession)); test: as above
SSTR3 CT9 (human) = target: SSTR3 CT9 (human (from the printed UniProt accession)); test: as above
Smo CT1 (human) = target: Smo CT1 (human (from the printed UniProt accession)); test: as above
Smo CT2 (human) = target: Smo CT2 (human (from the printed UniProt accession)); test: as above
Smo CT3 (human) = target: Smo CT3 (human (from the printed UniProt accession)); test: as above
Smo CT4 (human) = target: Smo CT4 (human (from the printed UniProt accession)); test: as above
Smo CT5 (human) = target: Smo CT5 (human (from the printed UniProt accession)); test: as above
Smo CT6 (human) = target: Smo CT6 (human (from the printed UniProt accession)); test: as above
Smo CT7 (human) = target: Smo CT7 (human (from the printed UniProt accession)); test: as above
Smo CT8 (human) = target: Smo CT8 (human (from the printed UniProt accession)); test: as above
[2] = target: fluoresceine-labeled Smo (R546-L665) (human (from the printed UniProt accession)) (UniProt Q99835); test: as above
5HT6 CT (human) [3] = target: T2, 5HT6 CT (human); test: as above; remark: listed apart in the source
[4] = target: the molecule itself; test: SEC; samples purified by affinity chromatography and gel filtration; 2.5–10 µg of the peak fraction on a Superdex 200 5/20 column; elution volume against standard proteins
SSTR3 CT2 = target: T1, SSTR3 CT2; test: fluorescence polarisation; fluorescein-labelled peptide or Smo fragment (0.1–1 µM) titrated with core BBSome or BBS1 (aa1-430); quadratic binding fit; settings: both partners purified
[5] = target: the molecule itself; test: SEC; full length BBS9 at high concentrations; at lower concentrations the single peak shifts to lower molecular weight (fast equilibrium between monomer and dimer)
BBS1 (aa1-430) = target: B2; test: fluorescence polarisation; fluorescein-labelled peptide or Smo fragment (0.1–1 µM) titrated with core BBSome or BBS1 (aa1-430); quadratic binding fit; settings: both partners purified

T2 sequence (P50406 325-344): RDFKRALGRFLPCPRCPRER
Sequence of fluoresceine-labeled Smo (R546-L665) (human (Q99835 546-665): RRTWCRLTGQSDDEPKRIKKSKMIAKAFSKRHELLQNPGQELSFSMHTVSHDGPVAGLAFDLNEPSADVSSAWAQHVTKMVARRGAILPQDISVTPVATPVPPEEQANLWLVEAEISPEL
Sequence of MCH 3ICL (human (peptide, as listed by the source): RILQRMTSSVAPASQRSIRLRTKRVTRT
Sequence of GPR161 CT2 (human (Q8N6U8 489-510): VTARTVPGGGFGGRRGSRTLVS
Sequence of Smo CT3 (human (Q99835 541-577): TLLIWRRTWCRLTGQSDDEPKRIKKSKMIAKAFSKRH
Sequence of NMU 3ICL1 (human (peptide, as listed by the source): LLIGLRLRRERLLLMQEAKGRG
Sequence of NMU 3ICL2 (human (Q9HB89 271-294): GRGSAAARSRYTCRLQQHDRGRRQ
Sequence of GPR161 CT1 (human (Q8N6U8 328-354): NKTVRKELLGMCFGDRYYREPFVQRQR

6mer BBSome core complex (BBS1, 4, 5, 8, 9 and 18) (from UniProt Q8NFJ9-1 1-593; Q96RK4-1 1-519; Q8N3I7-1 1-341; Q8TAM2 1-541; Q3SYG4-1 1-887; A8MTZ0-1 1-92)
Kd (5HT6 CT (human) [1]): 44.2 µM | Kd (GPR161 3ICL (human)): 6.3 µM | Kd (GPR161 CT1 (human)): 67.4 µM | Kd (GPR161 CT2 (human)): > 100 µM | Kd (MCH 3ICL (human)): 68.8 µM | Kd (NMU 3ICL1 (human)): 18.1 µM | Kd (NMU 3ICL2 (human)): > 100 µM | Kd (SSTR3 3ICL (human)): 12.8 µM | Kd (SSTR3 CT1 (human)): 22.1 µM | Kd (SSTR3 CT2 (human)): 0.11 µM | Kd (SSTR3 CT3 (human)): 1.1 µM | Kd (SSTR3 CT4 (human)): 0.4 µM | Kd (SSTR3 CT5 (human)): 1.5 µM | Kd (SSTR3 CT6 (human)): 4.5 µM | Kd (SSTR3 CT7 (human)): 1 µM | Kd (SSTR3 CT8 (human)): 11 µM | Kd (SSTR3 CT9 (human)): 4.7 µM | Kd (Smo CT1 (human)): 1.8 µM | Kd (Smo CT2 (human)): > 100 µM | Kd (Smo CT3 (human)): 1.4 µM | Kd (Smo CT4 (human)): 1.1 µM | Kd (Smo CT5 (human)): 9.7 µM | Kd (Smo CT6 (human)): 12.5 µM | Kd (Smo CT7 (human)): 14.3 µM | Kd (Smo CT8 (human)): 6.8 µM | Kd [2]: 36.1 µM | Kd (5HT6 CT (human) [3]): > 50 µM

B1
stoichiometry N [4]: 2

B2
fold lower affinity than to the core BBSome (SSTR3 CT2): ~100 fold

B3
stoichiometry N [5]: 2

B4
binding result (BBS1 (aa1-430)): binds
